Experimental data reported in patent US20230365675A1 (published 2023).

Assays:
Assay in all cases: FACS, mutant CD33-GFP on 293FT cells
[1] = target: T1, Mutant CD33-GFP M3 (N99A) on 293FT cells (UniProt P20138 18-364)
T1 construct: whole, on cells; not shown: GFP fused to CD33

[2] = target: T2, Mutant CD33-GFP M4 (R122D) on 293FT cells (UniProt P20138 18-364)
T2 construct: whole, on cells; not shown: GFP fused to CD33

[3] = target: T3, Mutant CD33-GFP M2 (H45E) on 293FT cells (UniProt P20138 18-364)
T3 construct: whole, on cells; not shown: GFP fused to CD33
T3 sequence (P20138 18-364 H45E): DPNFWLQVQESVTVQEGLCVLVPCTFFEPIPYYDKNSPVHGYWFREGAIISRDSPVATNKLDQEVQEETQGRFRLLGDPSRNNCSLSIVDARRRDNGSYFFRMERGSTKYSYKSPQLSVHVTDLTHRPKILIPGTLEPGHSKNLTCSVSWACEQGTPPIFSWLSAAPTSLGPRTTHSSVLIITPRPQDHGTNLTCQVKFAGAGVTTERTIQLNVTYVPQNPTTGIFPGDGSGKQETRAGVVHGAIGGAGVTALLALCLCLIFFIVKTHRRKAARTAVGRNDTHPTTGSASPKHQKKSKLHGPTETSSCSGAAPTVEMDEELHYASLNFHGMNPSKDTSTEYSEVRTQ

[4] = target: T4, Mutant CD33-GFP M1 (W22A) on 293FT cells (UniProt P20138 18-364)
T4 construct: whole, on cells; not shown: GFP fused to CD33
T4 sequence (P20138 18-364 W22A): as the sequence (P20138 18-364 H45E) above, with W5A, E28H counted along it

[5] = target: T5, Mutant CD33-GFP M5 (AEAD), quadruple mutant, on 293FT cells (UniProt P20138 18-364)
T5 construct: whole, on cells; substitutions left empty; not shown: GFP fused to CD33
T5 sequence (P20138 other isoform, or with tags, fused parts or gaps mutant): as the sequence (P20138 18-364 H45E) above, with W5A, N82A, R105D counted along it

[6] = target: T6, Mutant CD33-GFP M13 (R91E) on 293FT cells (UniProt P20138 18-364)
T6 construct: whole, on cells; not shown: GFP fused to CD33
T6 sequence (P20138 18-364 R91E): as the sequence (P20138 18-364 H45E) above, with E28H, R74E counted along it

[7] = target: T7, Mutant CD33-GFP M12 (G88S) on 293FT cells (UniProt P20138 18-364)
T7 construct: whole, on cells; not shown: GFP fused to CD33
T7 sequence (P20138 18-364 G88S): as the sequence (P20138 18-364 H45E) above, with E28H, G71S counted along it

[8] = target: T8, Mutant CD33-GFP M11 (L78T) on 293FT cells (UniProt P20138 18-364)
T8 construct: whole, on cells; not shown: GFP fused to CD33
T8 sequence (P20138 18-364 L78T): as the sequence (P20138 18-364 H45E) above, with E28H, L61T counted along it

[9] = target: T9, Mutant CD33-GFP M15 (Q171A) on 293FT cells (UniProt P20138 18-364)
T9 construct: whole, on cells; not shown: GFP fused to CD33
T9 sequence (P20138 18-364 Q171A): as the sequence (P20138 18-364 H45E) above, with E28H, Q154A counted along it

[10] = target: T10, Mutant CD33-GFP M14 (E170R) on 293FT cells (UniProt P20138 18-364)
T10 construct: whole, on cells; not shown: GFP fused to CD33
T10 sequence (P20138 18-364 E170R): as the sequence (P20138 18-364 H45E) above, with E28H, E153R counted along it

[11] = target: T11, Mutant CD33-GFP JS28 (S28L) on 293FT cells (UniProt P20138 18-364)
T11 construct: whole, on cells; not shown: GFP fused to CD33
T11 sequence (P20138 18-364 S28L): as the sequence (P20138 18-364 H45E) above, with S11L, E28H counted along it

[12] = target: T12, Mutant CD33-GFP JS25 (V25M) on 293FT cells (UniProt P20138 18-364)
T12 construct: whole, on cells; not shown: GFP fused to CD33
T12 sequence (P20138 18-364 V25M): as the sequence (P20138 18-364 H45E) above, with V8M, E28H counted along it

[13] = target: T13, Mutant CD33-GFP JS24 (Q24E) on 293FT cells (UniProt P20138 18-364)
T13 construct: whole, on cells; not shown: GFP fused to CD33
T13 sequence (P20138 18-364 Q24E): as the sequence (P20138 18-364 H45E) above, with Q7E, E28H counted along it

[14] = target: T14, Mutant CD33-GFP JS23 (L23N) on 293FT cells (UniProt P20138 18-364)
T14 construct: whole, on cells; not shown: GFP fused to CD33
T14 sequence (P20138 18-364 L23N): as the sequence (P20138 18-364 H45E) above, with L6N, E28H counted along it

[15] = target: T15, Mutant CD33-GFP M10 (Y127A) on 293FT cells (UniProt P20138 18-364)
T15 construct: whole, on cells; not shown: GFP fused to CD33
T15 sequence (P20138 18-364 Y127A): as the sequence (P20138 18-364 H45E) above, with E28H, Y110A counted along it

[16] = target: T16, Mutant CD33-GFP M8 (K52A) on 293FT cells (UniProt P20138 18-364)
T16 construct: whole, on cells; not shown: GFP fused to CD33
T16 sequence (P20138 18-364 K52A): as the sequence (P20138 18-364 H45E) above, with E28H, K35A counted along it

[17] = target: T17, Mutant CD33-GFP M7 (R98D) on 293FT cells (UniProt P20138 18-364)
T17 construct: whole, on cells; not shown: GFP fused to CD33
T17 sequence (P20138 18-364 R98D): as the sequence (P20138 18-364 H45E) above, with E28H, R81D counted along it

[18] = target: T18, Mutant CD33-GFP M6 (F43N) on 293FT cells (UniProt P20138 18-364)
T18 construct: whole, on cells; not shown: GFP fused to CD33
T18 sequence (P20138 18-364 F43N): as the sequence (P20138 18-364 H45E) above, with F26N, E28H counted along it

[19] = target: T19, Mutant CD33-GFP M9 (Y49, 50A) on 293FT cells (UniProt P20138 18-364)
T19 construct: whole, on cells; Read as the double mutant Y49A + Y50A; not shown: GFP fused to CD33
T19 sequence (P20138 other isoform, or with tags, fused parts or gaps mutant): as the sequence (P20138 18-364 H45E) above, with E28H, Y32A, Y33A counted along it

[20] = target: Mutant CD33-GFP M19 (348ATAI) on 293FT cells (UniProt P20138)
[21] = target: Mutant CD33-GFP M18 (353AAL) on 293FT cells (UniProt P20138)
[22] = target: Mutant CD33-GFP M16 (4889AII) on 293FT cells (UniProt P20138)

T2 sequence (P20138 18-364 R122D): as the sequence (P20138 18-364 H45E) above, with E28H, R105D counted along it
T1 sequence (P20138 18-364 N99A): as the sequence (P20138 18-364 H45E) above, with E28H, N82A counted along it

FACS binding data [1]: 99.5 | FACS binding data [2]: 99.6 | FACS binding data [3]: 99.6 | FACS binding data [4]: 99.3 | FACS binding data [5]: 0.26 | FACS binding data [6]: 98.1 | FACS binding data [7]: 98.3 | FACS binding data [8]: 86.8 | FACS binding data [9]: 97.6 | FACS binding data [10]: 98.2 | FACS binding data [11]: 99.9 | FACS binding data [12]: 99.8 | FACS binding data [13]: 72.5 | FACS binding data [14]: 99.4 | FACS binding data [15]: 92.5 | FACS binding data [16]: 99.5 | FACS binding data [17]: 98.4 | FACS binding data [18]: 99.4 | FACS binding data [19]: 94.4 | FACS binding data [20]: 99.7 | FACS binding data [21]: 99.4 | FACS binding data [22]: 97.2
B1: hu195 (antibody, V domains shown)
VH: QVQLVQSGAEVKKPGSSVKVSCKASGYTFTDYNMHWVRQAPGQGLEWIGYIYPYNGGTGYNCIKFKSKATITADESTNTAYMELSSLRSEDTAVYYCARGRPAMDYWGQGTLVTVSS
VL: DIQMTQSPSSLSASVGDRVTITCRASESVDNYGISFMNWFQQKPGKAPKLLIYAASNQGSGVPSRFSGSGSGTDFTLTISSLQPDDFATYYCQQSKEVPWTFGQGTKVEIK
